This note sets out measurements from patent US20040077835A1.

For experiment [1], the target named is CCR5 (Homo sapiens (Human)) (UniProt P51681).
Experiment [2] shares this target. The source holds these as a separate data set.
Experiment [3] has the same target. The source holds these as a separate data set.

Take “NNY-P2Thz-Y3Chg-RANTES (4-68) (from UniProt P13501) (ligand)”: the inhibition of envelope-mediated cell fusion in experiment [1] was greater than 50 % inhibition. Also, the Mean Relative Potency (IC50 in the envelope-mediated cell fusion assay, relative to AOP-RANTES = 100) (relative to AOP-RANTES = 100) in experiment [2] came to 2.
As to “NNY-P-Y3tbuA-RANTES (4-68) (from UniProt P13501) (ligand)”, the inhibition of envelope-mediated cell fusion in experiment [1] is greater than 50 % inhibition. Further, in experiment [3], the Average Infectivity IC50 (cell-free viral infection assay) worked out at 0.014 nM and the Cell-Fusion Result For Comparison (IC50) worked out at 0.038 nM. The same substance yielded a Mean Relative Potency (IC50 in the envelope-mediated cell fusion assay, relative to AOP-RANTES = 100) (relative to AOP-RANTES = 100) in experiment [2] of 7.
In turn, “NNY-P-Y3Chg-RANTES (4-68) (from UniProt P13501) (ligand)” yielded an inhibition of envelope-mediated cell fusion in experiment [1] greater than 50 % inhibition. Moreover, in experiment [3], the Average Infectivity IC50 (cell-free viral infection assay) turned out to be 0.012 nM and the Cell-Fusion Result For Comparison (IC50) turned out to be 0.026 nM. The substance further yielded a Mean Relative Potency (IC50 in the envelope-mediated cell fusion assay, relative to AOP-RANTES = 100) (relative to AOP-RANTES = 100) in experiment [2] of 7.
In turn, “NNY-P2Thz-Y3tButA-RANTES (4-68) (from UniProt P13501) (ligand)” had an inhibition of envelope-mediated cell fusion in experiment [1] greater than 50 % inhibition. This substance also had a Mean Relative Potency (IC50 in the envelope-mediated cell fusion assay, relative to AOP-RANTES = 100) (relative to AOP-RANTES = 100) in experiment [2] of 4.
